PMC4755751 (eLife, 2015)

B1: untagged TP377 produced in the oxidative periplasm (VHH)
VHH: QVQLVESGGGPVEAGGSLRLSCAASGRSFSNSVMAWFRQAPGKEREFLSVLNWSSGRTSIADSVKGRFTMSRDPAKITVYLQMNGLKPEDTAVYYCAASNRGSLYTLDNQNRYEDWGQGTQVTVSS
notes: also called oxidized, disulfide bond-stabilized nanobody; source: E. coli BLR periplasm
B2: anti-Nup98 nanobody TP377 carrying a single N-terminal Alexa Fluor 647 maleimide (VHH)
VHH: QVQLVESGGGPVEAGGSLRLSCAASGRSFSNSVMAWFRQAPGKEREFLSVLNWSSGRTSIADSVKGRFTMSRDPAKITVYLQMNGLKPEDTAVYYCAASNRGSLYTLDNQNRYEDWGQGTQVTVSS
notes: not shown: His14-bdNEDD8, N-terminal, cleaved
B3: 3x Alexa Fluor 488-labeled TP377 (VHH)
VHH: QVQLVECGGGPVEAGGSLRLSCAASGRSFSNSVMAWFRQAPGKEREFLSVLNWSSGRTSIADSVKGRFTMCRDPAKITVYLQMNGLKPEDTAVYYCAASNRGSLYTLDNQNRYEDWGQGTQVTVSS
notes: also called 3xCys; source: E. coli cytoplasm, purified (Ni2+ chelate, bdNEDP1 cleavage), labeled with Alexa Fluor 488 maleimide; not shown: His14-bdNEDD8, N-terminal, cleaved
B4: unlabeled TP377 (competitor in Figure 5—figure supplement 1c) (VHH)
VHH: QVQLVESGGGPVEAGGSLRLSCAASGRSFSNSVMAWFRQAPGKEREFLSVLNWSSGRTSIADSVKGRFTMSRDPAKITVYLQMNGLKPEDTAVYYCAASNRGSLYTLDNQNRYEDWGQGTQVTVSS
B5: untagged TP377 produced in the mildly oxidative cytoplasm of E. coli SHuffle (VHH)
VHH: QVQLVESGGGPVEAGGSLRLSCAASGRSFSNSVMAWFRQAPGKEREFLSVLNWSSGRTSIADSVKGRFTMSRDPAKITVYLQMNGLKPEDTAVYYCAASNRGSLYTLDNQNRYEDWGQGTQVTVSS
notes: also called SHuffle-expressed TP377; source: E. coli SHuffle cytoplasm; not shown: His14-bdNEDD8, N-terminal, cleaved
B6: Biotinylated His14-Avi-(GlySer)9-SUMOStar-(GlySer)9-tagged anti-Nup98 nanobody TP377 (VHH)
VHH: QVQLVESGGGPVEAGGSLRLSCAASGRSFSNSVMAWFRQAPGKEREFLSVLNWSSGRTSIADSVKGRFTMSRDPAKITVYLQMNGLKPEDTAVYYCAASNRGSLYTLDNQNRYEDWGQGTQVTVSS
notes: source: E. coli cytoplasm, co-expressed with BirA, purified (Ni2+ chelate, imidazole elution); not shown: His14, N-terminal, kept; (GlySer)9-scSUMOStar-(GlySer)9, N-terminal, kept
B7: untagged TP377 produced in the reductive cytoplasm of E. coli BLR (VHH)
VHH: QVQLVESGGGPVEAGGSLRLSCAASGRSFSNSVMAWFRQAPGKEREFLSVLNWSSGRTSIADSVKGRFTMSRDPAKITVYLQMNGLKPEDTAVYYCAASNRGSLYTLDNQNRYEDWGQGTQVTVSS
notes: also called reduced variant; source: E. coli BLR cytoplasm

How the values were obtained:
[1] = biological target: T1, Biotinylated His14-Avi-bdSUMO-tagged Nup98^716-866 (Xenopus tropicalis, UniProt A0A1B8XZT4, biotin on the Avi-tag); assay: pull-down; biotinylated His14-Avi-bdSUMO-Nup98^716-866 immobilized on Streptavidin agarose; GFP-tagged TP377 bound without or with an equimolar amount or fivefold excess of nanobody competitor; elution by cleavage of the bdSUMO tag; SDS-PAGE, Coomassie; conditions: both partners purified
T1 construct: also called Nup98 NPC anchor domain

[2] = biological target: T2, Nup98 in nuclear pore complexes of Xenopus laevis XL177 cells (Xenopus laevis XL177 cells, UniProt A0A8J1MFV7); assay: immunostaining of cells or tissue; digitonin-permeabilized Xenopus laevis XL177 cells, 1-10 nM fluorescent nanobody 15 min on ice, washed, then fixed; confocal laser scanning microscopy; conditions: one partner purified
T2 construct: Xenopus laevis Nup98 within intact NPCs; also called (x)Nup98; source: endogenous, digitonin-permeabilized Xenopus laevis XL177 cells

[3] = biological target: T3, Nup98 (endogenous, Xenopus egg extract) (Xenopus laevis (egg extract), UniProt A0A8J1MFV7); assay: affinity purification with mass spectrometry; biotinylated tagged nanobody on magnetic Streptavidin beads, Xenopus egg extract (HSS) 1 h at 4°C, washes in S250 and in 50 mM Tris/HCl pH 7.5, 300 mM NaCl, 0.05% Tween-20, RanQ69L•GTP wash, elution by SUMOStar protease; SDS-PAGE, Coomassie, bands identified by mass spectrometry; conditions: one partner purified
T3 construct: Xenopus Nup98, FG-repeat nucleoporin; source: endogenous, Xenopus egg extract (high-speed supernatant)

| Binder | binding result [1] | other results |
| --- | --- | --- |
| B1 | binds | – |
| B2 | – | binding result [2]: binds |
| B3 | binds | – |
| B4 | binds | – |
| B5 | binds | – |
| B6 | – | binding result [3]: binds |
| B7 | binds | – |
